Source: paper doi:10.1101/2022.10.04.510906 (bioRxiv, 2022)

Target: T1, V/A-ATPase D subunit (Thermus thermophilus, UniProt O87880 1-223)
T1 sequence: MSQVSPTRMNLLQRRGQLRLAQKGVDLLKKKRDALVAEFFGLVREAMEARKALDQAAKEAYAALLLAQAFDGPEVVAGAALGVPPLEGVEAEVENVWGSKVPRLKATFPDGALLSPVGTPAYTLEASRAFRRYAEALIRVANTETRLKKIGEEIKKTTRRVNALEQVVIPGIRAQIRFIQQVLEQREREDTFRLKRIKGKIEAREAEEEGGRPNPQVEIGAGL
Assay: cryo-EM structure

binding result: binds
B1: V/A-ATPase F subunit (natural protein, Thermus thermophilus)
chain: MAVIADPETAQGFRLAGLEGYGASSAEEAQSLLETLVERGGYALVAVDEALLPDPERAVERLMRGRDLPVLLPIAGLKEAFQGHDVEGYMRELVRKTIGFDIKL
